{"source": "paper PMC5630700", "about": "(Frontiers in Immunology, 2017)", "target": "MARV Musoke NP tagged with FLAG at the N-terminus and His6 at the C-terminus (Wt) (Marburg virus Musoke-80, UniProt P27588)", "sequence (P27588 whole entry)": "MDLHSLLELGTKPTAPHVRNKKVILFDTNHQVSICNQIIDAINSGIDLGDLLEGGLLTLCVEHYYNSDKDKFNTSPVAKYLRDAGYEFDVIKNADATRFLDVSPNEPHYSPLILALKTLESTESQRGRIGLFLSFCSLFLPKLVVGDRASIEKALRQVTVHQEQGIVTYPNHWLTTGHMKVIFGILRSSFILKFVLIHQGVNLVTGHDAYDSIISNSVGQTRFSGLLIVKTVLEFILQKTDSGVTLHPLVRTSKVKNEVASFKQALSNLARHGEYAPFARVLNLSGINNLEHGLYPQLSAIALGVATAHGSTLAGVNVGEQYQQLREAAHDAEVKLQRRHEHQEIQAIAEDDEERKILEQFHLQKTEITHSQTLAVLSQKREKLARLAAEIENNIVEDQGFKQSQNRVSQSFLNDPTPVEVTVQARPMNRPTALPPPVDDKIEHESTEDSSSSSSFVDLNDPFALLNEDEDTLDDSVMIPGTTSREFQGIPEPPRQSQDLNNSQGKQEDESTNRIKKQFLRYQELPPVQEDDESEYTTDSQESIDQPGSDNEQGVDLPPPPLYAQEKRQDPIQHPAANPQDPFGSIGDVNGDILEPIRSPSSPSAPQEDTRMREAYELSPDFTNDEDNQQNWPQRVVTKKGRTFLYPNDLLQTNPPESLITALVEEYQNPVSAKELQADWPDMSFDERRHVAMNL", "assay": "far-Western, overlay or dot blot", "settings": "one partner purified"}
{"binder": "sdAb D–alkaline phosphatase fusion protein (pecan16) (VHH) VHH: KVKLQESGGGTVQAGGSLRLSCKASGFTFRSSAMGWYRRAPGQHRIFVGSFSRNEFKYADFAQGRFTISRDNAKNTVSLQMNHVIPEDTAVYYCHEDPYGMESLRYWGQGTQVTVSS", "values": [{"measurement": "binding result", "result": "binds"}]}
